Data as given in patent publication US20020022718A1, “Genes identified as required for proliferation of E. coli” (priority 1999, published 2002).

Tested on: Klebsiella pneumoniae
Test: Growth inhibition by induced E. coli antisense RNA in Klebsiella pneumoniae
Format: cell-based
Design: key: +: a positive in Table V below means that at least 10 fold more cells were required to observe a colony on the induced plate than on the non-induced plate; −: If there was no effect of antisense RNA expression in a microorganism, the clone is minus in Table V below
Settings: antisense RNA expression induced with IPTG, serial dilution plating
Method: To study the effects of transcriptional induction in liquid medium, growth curves were carried out by back diluting cultures 1:200 into fresh media with or without 1 mM IPTG and measuring the OD450 every 30 minutes (min). To study the effects of transcriptional induction on solid medium, 10^2, 10^3, 10^4, 10^5, 10^6, 10^7 and 10^8 fold dilutions of overnight cultures were prepared. Aliquots of from 0.5 to 3 μl of these dilutions were spotted on selective agar plates with or without 1 mM IPTG. After overnight incubation, the plates were compared to assess the sensitivity of the clones to IPTG.
Molecule No. EcXA190, encoding a portion of the b3052 gene of Escherichia coli, was either transformed directly into Enterobacter cloacae, Salmonella typhimurium and/or Klebsiella pneumoniae or subcloned into an expression vector functional in these species and the subclones transformed into these organisms. Suitable expression vectors are well known in the art. These expression vectors were introduced into Enterobacter cloacae, Salmonella typhimurium and/or Klebsiella pneumoniae cells that were then assayed for growth inhibition according to the method of Example 1. After growth in liquid culture, cells were plated at various serial dilutions and a score determined by calculating the log difference in growth for INDUCED vs. UNINDUCED antisense RNA expression as determined by the maximum 10 fold dilution at which a colony was observed. If there was no effect of antisense RNA expression in one organism, the clone is given a score of zero “0” in that organism. In contrast, a score of “8” means that 10^8 times more cells were required to observe a colony formed on the induced state than in the non-induced state under the conditions used and in that organism.
In addition, the above methods were validated using other antisense nucleic acids which inhibit the growth of E. coli which were identified using methods similar to those described above. Expression vectors which inhibited growth of E. coli upon induction of antisense RNA expression with IPTG were transformed directly into Enterobacter cloacae, Klebsiella pneumonia or Salmonella typhimurium. The transformed cells were then assayed for growth inhibition according to the method of Example 1. After growth in liquid culture, cells were plated at various serial dilutions and a score determined by calculating the log difference in growth for INDUCED vs. UNINDUCED antisense RNA expression as determined by the maximum 10 fold dilution at which a colony was observed. If there was no effect of antisense RNA expression in a microorganism, the clone is minus in Table V below. In contrast, a positive in Table V below means that at least 10 fold more cells were required to observe a colony on the induced plate than on the non-induced plate under the conditions used and in that microorganism.

| Molecule | Sensitivity of K. pneumoniae to antisense nucleic acid (growth inhibition, induced vs. uninduced) |
| --- | --- |
| EcXA123: antisense clone insert to E. coli yheL (nucleic acid, listed as Escherichia coli) antisense: CTGGTTTTAGCTTTTGCTTCGTAAACACGTAATAAAACGTCCTCACACAATATGAGGACGCCGAATTTTAGGGCGATGCCGAAAAGGTGTCAAGAAATATACAACGATCCCGCCATCACCAGGCCATCTGGCTGGGG | − |
| EcXA129: antisense clone insert to E. coli yadC, yadK (nucleic acid, listed as Escherichia coli) antisense: GTATTACAACAAGAATACAGTGCTAAAAAAAGAATGTACCTGAAGATAGTCTTCATTTTTACTCCAATGTTTCTTTATTGTTATGGTTTGCGCTGTTTTTGTTTGTTATTCGTAGTAAATATCCACTAACACATGGCTCATAAGTTGACCAGATGTAACACTCAATGCAGGATCGATTTTTTGCATTCGGGTGCTAAATTTCCAGGATGAACCATTCATGTCATCCGACATTACTGG | − |
| EcXA125: antisense clone insert to E. coli yiiL (nucleic acid, listed as Escherichia coli) antisense: TGTCGGTAAACAATGACAATTTGAGACAGAGTGAAAGGTCAGATTTGCGGAGTAATGCACATAATGGTTATTTAAATAAACCACATGAATCATTAATGGGTTATTCATTATTTTTGTGATTTACTCACAATGTATCAGGGAAATATAACTTACCGGGAGATGTAATATGTTTAATTTTTCAAATCGAAATTTAAAATATTGTGCCGGAGGCATCTCTGGCACATTGGGCAATTACGGCA | − |
| EcXA130: antisense clone insert to E. coli atpE, atpB (nucleic acid, listed as Escherichia coli) antisense: CATCATCACAGCGGCAGCCATGTACAGCAGATCCATATTCAGGTTTTCCATGACAGTCTCCAGTTTGTTTCAGTTAAAACGTAGTAGTGTTGGTAAATTAATGTTCTTCAGACGCCATCGACAGATAGACGATCGTCAGAACCATGAAGATGAAGGCTTGCAGCGTAATGATCAGGATGTGGAAAATGGCCCACGGCACATTCAGGATCCACTGTGACCACCACGGCAACAGACCAG | − |
| EcXA121: antisense clone insert to E. coli yjfQ (nucleic acid, listed as Escherichia coli) antisense: TGATCGATCAGGTAATTTGCCAGCGGTAGATAATTAGTGATGATTTGCACTGGCTTGCCACACATTTCCCGCCCAAGCAGAAACGCGGTGGAGCCGCAGTTGATGACTACGCTTTCGCCCGGATTAACCAGCTGCGAGGCCGCTTTAGCGATACGTACTTTTTCATCGTGATTCTGCGCCTGATGCAGATTCATCGGCGTCCAGCGCGGGCGCTGTTGGGTAATAGCTTCTGCGCCATTGCGCACTTTTTTCAGTTTGCCGCTTTCGTCAAGTTTATTGA | − |
| EcXA126: antisense clone insert to E. coli yicC (nucleic acid, listed as Escherichia coli) antisense: CGATGTTCTGAATCTGCTCGCGCATCTGCTCAATCAACACTTTCAGCTCGATGGCGGAGTTTGTCACTTCGGCATTGATAGACTTCGACGCAAGAGTGTTCGACTCGCGGTTGA | − |
| EcXA128: antisense clone insert to E. coli nagE (nucleic acid, listed as Escherichia coli) antisense: CGCTGGAAAAAACCTAAAATATTCATCTTATTCCCCCTACGAGAACCCTATTTGGCTCGTTTCAAGCCGTATTTTTATTTTGCTGCAAATTGTACTGCCGATGTTCTGTAATCAGATTGTTAGATCATCTGCTACAGAGTGTGTGAAAATTTAATTCGTATCGCAAATTAAACGCGTGTCTTTTGTGAGTTTTGTCACCAAATATCGTTATTATCACTCCCTTTTACTGGCTAAACCAGAAAACTTATTT | − |
| EcXA137: antisense clone insert to E. coli proA, thrW (nucleic acid, listed as Escherichia coli, misc_feature (1)...(729): n = A,T,C or G, antisense clone insert to E. coli proA, thrW) antisense: CTTTTTACGGACAAACAATCATGCAACCAGAAGTTGAAGTATTAACCGATCATAATGAGCTAATTTGTTCGAGCTTTATTGAACACATTGCCAACACATTAAATTTAGGAGTGGTGTACAACTAAACCTGCAGCCAAGGATGTATAGTGAGCGAAGCCCTATCAGGCCTTTTTGGTCAGTAGATAAGATTGATCTTCGTTGATAGAATTTACTTACACCAGCTGTTACATTAAGATAATTTTTTGGTGGGAGAATGATAAGATCTTACGTAACAATTTGATTTTAATGGTGCCGATAATAGGAGTCGAACCTACGACCTTCGCATTACGAATGCGCTGCTCTACCAACTGAGCTATATCGGCCCTGAAAGGACATGTTCACGAACGTGAATCACGGTGGACAAGGTTAAAACTAACCGGGCGATGCGTCAATGGCCTTGTGAATCAAATGGCTACTTTTGCATCACCCGGTTTTATTTACGCACGAATGGTGTAATCACCAATGCCGATCCACTTGTAAGTGGTCAAGTGCTTNCAGCCCCATTGGGCCACGCGCCGTGGAGTTTTTGTGTGCTTACCGGCACTTTCGCACCCAGACCAAACTGGCCGCCGTCGGTAAAACGCGTAGAGGCGTTACGTAAACAGCGGACGAATCCACTTCGTNACAAAACGCTTGGCGTTGGCATATCGCGGGTCANGATCGCAATCGGAGTGTTGTGTGCCCGGGTTN | − |
| EcXA132: antisense clone insert to E. coli narV (nucleic acid, listed as Escherichia coli) antisense: GGAGAGCGAAGGGCTATCCGGCCAGGGTGAAATTATCGCCGCGAACGCACAATTTGATATCGACGAGTAAAGTACTCAAACGGCGCGCTCCACACATGCACCAGTCGGGTGAACGGGAAGAGCAGGAAGATGGTCATTCCCAACACCAGATGCAGGCGGAAGACGAACGCTACGCCGTTGAGCATCTCTGACGATCCACCACGGAAAGTGA | − |
| EcXA141: antisense clone insert to E. coli rfc (nucleic acid, listed as Escherichia coli) antisense: CGATTATAGGGCTGACCAAATACATGGATAGATAATATGCCATCCCCCCAGGCAGTCCACGTAAAAAGAGCATATACAAGGAGAATAGAACACCTACAGCTGTAATAAGATAAACATAATGTTTTACTCTATTAACACCTACGATGAATGCATAAGAGATGATAACCATAAAGACAATTTGCTTACCAGTATTCAGTATAATTGCAAAGATGAATACAATAAAAACAAGTAAAGTAAATGTTTTACTTACCTTTGTATTAGTAAATTTTTTA | − |
| EcXA138: antisense clone insert to E. coli yhaC (nucleic acid, listed as Escherichia coli) antisense: AGCCATTGTCCGGAGAATTTTCGTCTTTCTCGAGGGTATTATCTGAAAGTAACTCTTCTGAGCTAGAGTCTTCTATGTTTAAATCCATAGTATAATTAATTTGGGGGACGACCAGATAAGCATTTTCTTTGGTATTTTCATAATCTTCAATGATTATATCCGATGTAATCATATATTTTTTCTGATGAGAATTCTTTCATCTCTGTTAATTTAATTCTGTTCAAGCAATTGATGATTTTCGATGAGCTTTTATATATTTCTTTTGTTAATTCATTTTCTAATTTATCTGTAAGAGTTGCCCTTGG | − |
| EcXA139: antisense clone insert to E. coli b0874 (nucleic acid, listed as Escherichia coli) antisense: AGGTTACTGGCGAGGTTATCGAGAAACGCCAGACTGATACCCATAAAAAAGAGAATAAGGTAAACCATCCAGCTTAATAGCTGATTAATAACTTTTAACGCAGCTTGTTGGCGAAGCGGAATGAGGTAACCCACAATCAGGGGAACCAGAATGATTAACAGCCCAGAAAACATGAAAACCCAGTCCTTGCAAAGATGAAGTCGAAATGCGCGATGACACACTACTGAAAGCGGAAGGACGAGTAAAGTTGCAATTAAAAGGAAATGTTATGCATAAGGAGCAGTAGAGTATTCGTTTTCATTTAAAGATATTCTTGCGCTTTAATTACAAACTGCACCGATGTTGGTGGCGTCAAAATCGCCGAGGCGTTCCCTGAAGGCCGGGGCAGCCCACATGGATGTGGGCTGAGGGCGCGTTTTACAGGG | − |
